Source: paper PMC9638937, “Structural and functional determinants of the archaeal 8-oxoguanine-DNA glycosylase AGOG for DNA damage recognition and processing”

T1: Pab-AGOG WT (Pyrococcus abyssi, UniProt Q9UZY0 1-239)
T1 sequence: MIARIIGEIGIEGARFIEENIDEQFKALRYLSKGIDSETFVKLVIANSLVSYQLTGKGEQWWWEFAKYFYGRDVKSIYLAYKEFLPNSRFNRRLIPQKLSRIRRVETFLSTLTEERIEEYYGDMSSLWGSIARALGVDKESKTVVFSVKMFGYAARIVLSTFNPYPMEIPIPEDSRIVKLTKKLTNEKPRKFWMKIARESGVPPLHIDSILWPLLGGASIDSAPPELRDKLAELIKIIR

T2: Pab-AGOG K142Q (Pyrococcus abyssi, UniProt Q9UZY0 1-239, K142Q)
T2 sequence: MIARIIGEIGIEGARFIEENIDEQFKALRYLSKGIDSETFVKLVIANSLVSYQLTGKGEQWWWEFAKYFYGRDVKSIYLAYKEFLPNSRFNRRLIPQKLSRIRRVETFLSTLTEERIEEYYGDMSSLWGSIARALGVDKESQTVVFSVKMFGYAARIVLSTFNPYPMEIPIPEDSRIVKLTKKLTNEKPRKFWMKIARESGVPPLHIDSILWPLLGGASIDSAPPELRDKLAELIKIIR

B1: 9-mer trapped AP strand with 9-mer T (dsDNA)
DNA 1: TTTGTTTCT
DNA 2: AGAAATAAA
modifications: ring-open AP site from GO, borohydride-trapped, opposite T
B2: 9-mer trapped AP strand with 9-mer A (dsDNA)
DNA 1: TTTGTTTCT
DNA 2: AGAAAAAAA
modifications: ring-open AP site from GO, borohydride-trapped, opposite A
B3: 9-mer GO:C duplex (dsDNA)
DNA 1: TTTGTTTCT
DNA 2: AGAAACAAA
modifications: 8-oxoguanine at position 4 (opposite C6*)

Legend:
Pab-AGOG WT = target: T1, Pab-AGOG WT; assay: X-ray structure; NaBH4-trapped covalent at K142; EMSA: 0.1 nM 32P-DNA, 20 mM HEPES/NaOH pH 7.6, 100 mM NaCl, 10% glycerol, 0.1% BSA, 30 min at 4 C; 10% native PAGE at 4 C; details: protein: recombinant; tags: N-terminal 6xHis (pET28a), removed by trypsin at thrombin site
Pab-AGOG K142Q = target: T2, Pab-AGOG K142Q; assay: X-ray structure; non-covalent, 1.25 A; EMSA: 0.1 nM 32P-DNA, 20 mM HEPES/NaOH pH 7.6, 100 mM NaCl, 10% glycerol, 0.1% BSA, 30 min at 4 C; 10% native PAGE at 4 C; details: protein: recombinant; tags: N-terminal 6xHis (pET28a), removed by trypsin (as for WT)

Row | Binder | binding result (Pab-AGOG WT) | binding result (Pab-AGOG K142Q)
1 | B1 | binds | –
2 | B2 | binds | –
3 | B3 | – | binds
